One series addresses THRa:RXRa (Homo sapiens, UniProt P10827;P19793 full;full). Nature of the series: no ligand; PBM; 90 nM : 90 nM RXRa; PBS pH 7.4, 2% milk, 0.02% Triton X-100, 1 mM DTT, BSA, 0.4 mg/ml salmon testes DNA. The settings on record: tags: His kept;His cleaved; copies: 1;1; label: surface-attached array probe.
In the next series the target is RARb:RXRa (Homo sapiens, UniProt P10826;P19793 full;full). Nature of the series: no ligand; PBM; 270 nM : 90 nM RXRa; PBS pH 7.4, 2% milk, 0.02% Triton X-100, 1 mM DTT, BSA, 0.4 mg/ml salmon testes DNA. The conditions noted are these: tags: His kept;His cleaved; copies: 1;1; label: surface-attached array probe. Put shortly:
(§1)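 Ligand-free nuclear receptor dimers were bound for 1 h to custom Agilent 4×180K protein-binding microarrays. Detection used antibodies against each partner (one per run). Binding z-scores rest on regression-normalized fluorescence, with random background probes as the reference.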

The target in the next series is FXR:RXRa (Homo sapiens, UniProt Q96RI1;P19793 full;full). The series is described as above. The settings on record: tags: His kept;His cleaved; copies: 1;1; label: surface-attached array probe. Put shortly: as §1
Sequence of FXR:RXRa (Q96RI1 whole entry, chain 1 of 2): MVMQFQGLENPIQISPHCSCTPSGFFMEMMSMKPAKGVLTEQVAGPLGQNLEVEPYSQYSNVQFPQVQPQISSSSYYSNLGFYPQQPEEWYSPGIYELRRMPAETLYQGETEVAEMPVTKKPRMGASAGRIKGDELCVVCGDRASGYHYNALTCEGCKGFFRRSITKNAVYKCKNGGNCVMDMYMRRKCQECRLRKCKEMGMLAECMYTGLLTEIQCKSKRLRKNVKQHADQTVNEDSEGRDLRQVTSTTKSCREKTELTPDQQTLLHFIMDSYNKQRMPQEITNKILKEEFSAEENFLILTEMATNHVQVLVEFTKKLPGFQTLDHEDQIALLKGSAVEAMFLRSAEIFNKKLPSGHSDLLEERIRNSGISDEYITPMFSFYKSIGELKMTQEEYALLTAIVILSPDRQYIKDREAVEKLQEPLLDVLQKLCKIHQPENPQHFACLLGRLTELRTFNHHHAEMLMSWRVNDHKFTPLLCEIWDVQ
Sequence of FXR:RXRa (P19793 whole entry, chain 2 of 2): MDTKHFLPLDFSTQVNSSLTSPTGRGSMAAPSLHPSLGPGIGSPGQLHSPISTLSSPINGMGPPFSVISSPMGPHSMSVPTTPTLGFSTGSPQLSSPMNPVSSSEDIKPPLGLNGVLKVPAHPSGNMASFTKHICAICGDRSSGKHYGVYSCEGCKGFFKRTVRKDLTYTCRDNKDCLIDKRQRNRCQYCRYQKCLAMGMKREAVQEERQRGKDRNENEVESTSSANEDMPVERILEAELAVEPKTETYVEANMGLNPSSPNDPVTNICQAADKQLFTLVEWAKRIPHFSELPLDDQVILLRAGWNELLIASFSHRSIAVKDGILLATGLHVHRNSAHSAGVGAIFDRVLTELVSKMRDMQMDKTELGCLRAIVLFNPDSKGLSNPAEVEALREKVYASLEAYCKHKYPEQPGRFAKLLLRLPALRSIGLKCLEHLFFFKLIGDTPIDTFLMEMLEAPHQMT
A further series addresses PPARa:RXRa (Homo sapiens, UniProt Q07869;P19793 full;full). The series is described as above. The settings on record: tags: GST kept;His cleaved; copies: 1;1; label: surface-attached array probe. An outline of the steps: as §1
The next series concerns the target RARg:RXRa (Homo sapiens, UniProt P13631;P19793 full;full). The description is as above. The conditions noted are these: tags: His kept;His cleaved; copies: 1;1; label: surface-attached array probe. Put shortly:
as §1

Sequence of RARb:RXRa (P10826 whole entry, chain 1 of 2): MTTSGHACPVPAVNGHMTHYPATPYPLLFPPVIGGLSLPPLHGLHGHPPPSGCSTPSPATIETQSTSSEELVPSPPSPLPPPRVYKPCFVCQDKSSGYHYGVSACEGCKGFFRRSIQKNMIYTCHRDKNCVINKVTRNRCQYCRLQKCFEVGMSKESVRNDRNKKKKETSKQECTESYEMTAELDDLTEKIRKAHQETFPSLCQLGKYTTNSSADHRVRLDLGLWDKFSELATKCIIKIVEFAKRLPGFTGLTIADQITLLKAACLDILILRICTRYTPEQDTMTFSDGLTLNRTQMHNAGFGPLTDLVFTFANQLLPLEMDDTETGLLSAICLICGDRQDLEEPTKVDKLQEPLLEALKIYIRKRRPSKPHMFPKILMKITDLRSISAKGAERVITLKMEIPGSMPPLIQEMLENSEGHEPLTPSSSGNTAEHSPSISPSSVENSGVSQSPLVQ
Sequence of RARb:RXRa (P19793 whole entry, chain 2 of 2): as the sequence (P19793 whole entry, chain 2 of 2) above
Sequence of THRa:RXRa (P10827 other isoform, or with tags, fused parts or gaps, chain 1 of 2): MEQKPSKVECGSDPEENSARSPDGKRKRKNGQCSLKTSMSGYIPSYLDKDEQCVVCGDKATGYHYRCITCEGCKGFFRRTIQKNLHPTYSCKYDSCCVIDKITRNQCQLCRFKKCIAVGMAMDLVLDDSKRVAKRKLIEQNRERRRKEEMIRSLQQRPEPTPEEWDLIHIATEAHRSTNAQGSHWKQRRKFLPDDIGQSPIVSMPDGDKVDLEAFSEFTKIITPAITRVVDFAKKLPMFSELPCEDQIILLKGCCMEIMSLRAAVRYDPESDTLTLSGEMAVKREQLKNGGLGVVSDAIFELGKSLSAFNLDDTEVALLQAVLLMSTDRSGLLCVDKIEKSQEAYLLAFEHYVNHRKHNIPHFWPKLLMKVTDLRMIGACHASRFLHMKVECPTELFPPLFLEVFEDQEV
Sequence of THRa:RXRa (P19793 whole entry, chain 2 of 2): as the sequence (P19793 whole entry, chain 2 of 2) above
Sequence of PPARa:RXRa (Q07869 whole entry, chain 1 of 2): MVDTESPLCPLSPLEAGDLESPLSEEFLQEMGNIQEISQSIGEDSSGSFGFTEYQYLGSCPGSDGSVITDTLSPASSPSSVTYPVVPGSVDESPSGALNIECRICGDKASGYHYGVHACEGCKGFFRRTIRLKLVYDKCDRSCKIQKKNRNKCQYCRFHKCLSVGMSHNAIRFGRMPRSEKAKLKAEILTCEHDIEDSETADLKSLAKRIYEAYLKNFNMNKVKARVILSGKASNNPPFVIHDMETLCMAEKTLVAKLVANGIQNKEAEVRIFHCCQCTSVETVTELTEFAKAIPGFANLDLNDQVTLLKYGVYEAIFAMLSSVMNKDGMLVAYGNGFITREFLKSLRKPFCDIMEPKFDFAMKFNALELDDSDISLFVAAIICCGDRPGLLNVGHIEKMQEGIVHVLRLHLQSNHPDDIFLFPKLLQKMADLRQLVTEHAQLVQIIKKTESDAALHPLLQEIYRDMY
Sequence of PPARa:RXRa (P19793 whole entry, chain 2 of 2): as the sequence (P19793 whole entry, chain 2 of 2) above
Sequence of RARg:RXRa (P13631 whole entry, chain 1 of 2): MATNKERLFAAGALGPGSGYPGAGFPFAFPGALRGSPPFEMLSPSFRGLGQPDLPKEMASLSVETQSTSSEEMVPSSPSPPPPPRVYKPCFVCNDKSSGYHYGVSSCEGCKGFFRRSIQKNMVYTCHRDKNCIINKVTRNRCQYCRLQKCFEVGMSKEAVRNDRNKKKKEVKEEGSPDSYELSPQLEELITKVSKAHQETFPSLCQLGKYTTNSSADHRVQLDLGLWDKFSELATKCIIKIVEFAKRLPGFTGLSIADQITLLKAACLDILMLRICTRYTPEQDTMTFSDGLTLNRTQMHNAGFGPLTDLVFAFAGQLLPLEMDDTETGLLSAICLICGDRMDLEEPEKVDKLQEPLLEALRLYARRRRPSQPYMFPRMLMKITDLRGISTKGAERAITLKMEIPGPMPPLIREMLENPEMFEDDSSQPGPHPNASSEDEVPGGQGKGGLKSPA
Sequence of RARg:RXRa (P19793 whole entry, chain 2 of 2): as the sequence (P19793 whole entry, chain 2 of 2) above

B1: NRC3_random_hg19_264_o1 (dsDNA)
DNA 1: GCTCATCAGTCTAATGATGCTGTTGGTCCAGGGAGCGCGATTGACAGCGTAGAATGAAGG
DNA 2: CCTTCATTCTACGCTGTCAATCGCGCTCCCTGGACCAACAGCATCATTAGACTGATGAGC
For B1, in the series with THRa:RXRa, the binding signal is -0.53 PBM z-score against 500 random probes.

B2: NRC3_random_hg19_74_o1 (dsDNA)
DNA 1: GCAGAACAGCTGAGTGGCTCAAGACCGCAGAGGAACGCGATTGACAGCGTAGAATGAAGG
DNA 2: CCTTCATTCTACGCTGTCAATCGCGTTCCTCTGCGGTCTTGAGCCACTCAGCTGTTCTGC
Turning to B2, the binding signal in the series with RARb:RXRa was -1.89 PBM z-score against 500 random probes; with THRa:RXRa, -0.75 PBM z-score against 500 random probes.

B3: NRC3_random_hg19_48_o1 (dsDNA)
DNA 1: GCTAGTCCAGCTGGCTGGAGACTCATGGAAGAACAGGCGATTGACAGCGTAGAATGAAGG
DNA 2: CCTTCATTCTACGCTGTCAATCGCCTGTTCTTCCATGAGTCTCCAGCCAGCTGGACTAGC
In the case of B3, the binding signal with THRa:RXRa is -1.43 PBM z-score against 500 random probes.

B4: NRC3_random_hg19_228_o1 (dsDNA)
DNA 1: GCCACCGTGTTAGCCAGGATGGTCTCGATCTCCTGAGCGATTGACAGCGTAGAATGAAGG
DNA 2: CCTTCATTCTACGCTGTCAATCGCTCAGGAGATCGAGACCATCCTGGCTAACACGGTGGC
In the case of B4, the figures for the binding signal with FXR:RXRa and with THRa:RXRa were -0.45 PBM z-score against 500 random probes and -1.6 PBM z-score against 500 random probes, respectively.

B5: NRC3_random_hg19_407_o1 (dsDNA)
DNA 1: GCGAGACATGAGATTTGGTTCTAGCTACACTCTTCAGCGATTGACAGCGTAGAATGAAGG
DNA 2: CCTTCATTCTACGCTGTCAATCGCTGAAGAGTGTAGCTAGAACCAAATCTCATGTCTCGC
For the molecule B5, the binding signal in the series with THRa:RXRa was -0.37 PBM z-score against 500 random probes.

B6: NRC3_random_hg19_436_o1 (dsDNA)
DNA 1: GCATAGTTTCCAGCTTCATCCATGTCTCTGCAAAGAGCGATTGACAGCGTAGAATGAAGG
DNA 2: CCTTCATTCTACGCTGTCAATCGCTCTTTGCAGAGACATGGATGAAGCTGGAAACTATGC
With B6, the binding signal was -0.03 PBM z-score against 500 random probes with PPARa:RXRa and 0.27 PBM z-score against 500 random probes with THRa:RXRa.

B7: NRC3_wobSeed37_DR1_T23G_o1 (dsDNA)
DNA 1: GCCGTCCAAGGTCAAAGGTCAGGGAAGAGATGACGGGCGATTGACAGCGTAGAATGAAGG
DNA 2: CCTTCATTCTACGCTGTCAATCGCCCGTCATCTCTTCCCTGACCTTTGACCTTGGACGGC
In the case of B7, the binding signal with RARb:RXRa was 6.26 PBM z-score against 500 random probes; with PPARa:RXRa it was 7.45 PBM z-score against 500 random probes; with THRa:RXRa, 5.23 PBM z-score against 500 random probes.

B8: NRC3_random_hg19_166_o1 (dsDNA)
DNA 1: GCAATGACATGATCATAGCTCACTGCAGCCTTGAATGCGATTGACAGCGTAGAATGAAGG
DNA 2: CCTTCATTCTACGCTGTCAATCGCATTCAAGGCTGCAGTGAGCTATGATCATGTCATTGC
Take B8: in the series with THRa:RXRa, the binding signal was -0.62 PBM z-score against 500 random probes.

B9: NRC3_wobSeed102_DR4_T18G_o1 (dsDNA)
DNA 1: GCCCTAGCAGGCCAATCGGGGTCACTCAAGGCTTGAGCGATTGACAGCGTAGAATGAAGG
DNA 2: CCTTCATTCTACGCTGTCAATCGCTCAAGCCTTGAGTGACCCCGATTGGCCTGCTAGGGC
Take B9: the binding signal in the series with RARb:RXRa is 3.05 PBM z-score against 500 random probes; in the series with THRa:RXRa it was 4.94 PBM z-score against 500 random probes.

B10: NRC3_random_hg19_121_o1 (dsDNA)
DNA 1: GCGCAGTAGGCACAGGGACTGTGTACAGATCTACACGCGATTGACAGCGTAGAATGAAGG
DNA 2: CCTTCATTCTACGCTGTCAATCGCGTGTAGATCTGTACACAGTCCCTGTGCCTACTGCGC
As to B10, the figures for the binding signal in the series with RARb:RXRa and with THRa:RXRa were -1.18 PBM z-score against 500 random probes and -2.89 PBM z-score against 500 random probes, respectively.

B11: NRC3_random_hg19_242_o1 (dsDNA)
DNA 1: GCCAGCAGAGAACCCAGTGGAACATGAGCCTATACAGCGATTGACAGCGTAGAATGAAGG
DNA 2: CCTTCATTCTACGCTGTCAATCGCTGTATAGGCTCATGTTCCACTGGGTTCTCTGCTGGC
As for B11, the binding signal with THRa:RXRa is -0.39 PBM z-score against 500 random probes.

B12: NRC3_wobSeed121_DR5_G18T_o1 (dsDNA)
DNA 1: GCCAAACTAGGTCACCGTAAGGTCAAAGTCCGCATGGCGATTGACAGCGTAGAATGAAGG
DNA 2: CCTTCATTCTACGCTGTCAATCGCCATGCGGACTTTGACCTTACGGTGACCTAGTTTGGC
As to B12, the binding signal is 6.59 PBM z-score against 500 random probes with PPARa:RXRa and 5.33 PBM z-score against 500 random probes with THRa:RXRa.

B13: NRC3_random_hg19_423_o1 (dsDNA)
DNA 1: GCATCAAGTGATCCTCCCACCTCAGCCTTCCAAGTCGCGATTGACAGCGTAGAATGAAGG
DNA 2: CCTTCATTCTACGCTGTCAATCGCGACTTGGAAGGCTGAGGTGGGAGGATCACTTGATGC
For the molecule B13, the results for the binding signal with RARb:RXRa and with THRa:RXRa were 0.02 PBM z-score against 500 random probes and 0.07 PBM z-score against 500 random probes, respectively.

B14: NRC3_random_hg19_259_o1 (dsDNA)
DNA 1: GCCCTGAGTCAGTAGAACCAGCTGAGAGATTGGATTGCGATTGACAGCGTAGAATGAAGG
DNA 2: CCTTCATTCTACGCTGTCAATCGCAATCCAATCTCTCAGCTGGTTCTACTGACTCAGGGC
As for B14, the binding signal with THRa:RXRa was -0.45 PBM z-score against 500 random probes.

B15: NRC3_wobSeed106_DR4_G14A_o1 (dsDNA)
DNA 1: GCCTCGAAAGGTCAGTTGAGGTGAGTATACGGATAAGCGATTGACAGCGTAGAATGAAGG
DNA 2: CCTTCATTCTACGCTGTCAATCGCTTATCCGTATACTCACCTCAACTGACCTTTCGAGGC
For B15, the values for the binding signal in the series with RARb:RXRa and in the series with THRa:RXRa were 5.79 PBM z-score against 500 random probes and 5.33 PBM z-score against 500 random probes, respectively.

B16: NRC3_wobSeed97_DR4_A6C_o1 (dsDNA)
DNA 1: GCCAACCTAGGTCACGAAAGGTCAAAGTCGAATGACGCGATTGACAGCGTAGAATGAAGG
DNA 2: CCTTCATTCTACGCTGTCAATCGCGTCATTCGACTTTGACCTTTCGTGACCTAGGTTGGC
B16: the values for the binding signal in the series with RARb:RXRa and with THRa:RXRa were 6.29 PBM z-score against 500 random probes and 5.6 PBM z-score against 500 random probes, respectively.

B17: NRC3_random_hg19_285_o1 (dsDNA)
DNA 1: GCTTACTCTGTTGCACTTTGGAAGAAACAAATGTAAGCGATTGACAGCGTAGAATGAAGG
DNA 2: CCTTCATTCTACGCTGTCAATCGCTTACATTTGTTTCTTCCAAAGTGCAACAGAGTAAGC
Take B17: the binding signal is 0.15 PBM z-score against 500 random probes with RARb:RXRa and 0.3 PBM z-score against 500 random probes with THRa:RXRa.

B18: NRC3_wobSeed25_DR1_T25C_o1 (dsDNA)
DNA 1: GCCAAACTAGGTCAAAGGTCAAAGCCGAGCCAACCAGCGATTGACAGCGTAGAATGAAGG
DNA 2: CCTTCATTCTACGCTGTCAATCGCTGGTTGGCTCGGCTTTGACCTTTGACCTAGTTTGGC
For B18, the results for the binding signal with PPARa:RXRa and with THRa:RXRa were 8.1 PBM z-score against 500 random probes and 5.19 PBM z-score against 500 random probes, respectively.

B19: NRC3_wobSeed25_DR1_C26A_o1 (dsDNA)
DNA 1: GCCAAACTAGGTCAAAGGTCAAAGTAGAGCCAACCAGCGATTGACAGCGTAGAATGAAGG
DNA 2: CCTTCATTCTACGCTGTCAATCGCTGGTTGGCTCTACTTTGACCTTTGACCTAGTTTGGC
Consider B19, for which the binding signal is 6.19 PBM z-score against 500 random probes in the series with RARb:RXRa and 5.12 PBM z-score against 500 random probes in the series with THRa:RXRa.

B20: NRC3_wobSeed18_DR0_C13G_o1 (dsDNA)
DNA 1: GCGATACAGGGTGAAGGCCAGAGTACGCGTATTGATGCGATTGACAGCGTAGAATGAAGG
DNA 2: CCTTCATTCTACGCTGTCAATCGCATCAATACGCGTACTCTGGCCTTCACCCTGTATCGC
As for B20, the binding signal in the series with RARg:RXRa was 0.44 PBM z-score against 500 random probes; with THRa:RXRa, 0.38 PBM z-score against 500 random probes.

B21: NRC3_wobSeed88_DR3_C13T_o1 (dsDNA)
DNA 1: GCTAGCCTAGGTTATGCGGGCCAGTATAGTGTCGGCGCGATTGACAGCGTAGAATGAAGG
DNA 2: CCTTCATTCTACGCTGTCAATCGCGCCGACACTATACTGGCCCGCATAACCTAGGCTAGC
For B21, the binding signal with PPARa:RXRa was 0.03 PBM z-score against 500 random probes; with THRa:RXRa, 0.05 PBM z-score against 500 random probes.

These data come from publication PMC6555819, “Comprehensive study of nuclear receptor DNA binding provides a revised framework for understanding receptor specificity”.
